# From PMC11229311, “Structural and functional investigation of the DHH/DHHA1 family proteins in Deinococcus radiodurans” (Nucleic Acids Research, 2024)
# B1: Deinococcus radiodurans RecJ-like (DrRecJ-like), wild type (enzyme, UniProt Q9RW43 1-338, looked up)
# chain: MTAENSATPDYRRNVGAVADALLAHPGPIVVLSHENPDGDALGSVLGLSRALRTLGKTVLAPMTVPHYLSFLPQPGELTAPLESWPQGALAAVLDVDNNDPVRVAGADLTQFDGPVVNVDHHGTNLRRADAGVVDPSKPAAAMMVADVIDALGAPWSEAVATPLMLGLNTDTGNFAFDSVSAETFECAARLRAHGARIGWLNDQMRQNPQSYYLLLREVLGKLEFLHGGRVVQTRVDEEMLARAGATWEQVENYVSMLRNAEGAQLAVMAKDYGDRVKFSLRSRGPVSAQNIAVALGGGGHVPAAGATVISSYAEARARLDAAIEAELARVDAQATAE
# notes: RecJ-like protein (DR_0826) of Deinococcus radiodurans, full-length gene, residues 1-338, amplified from genomic DNA; DHH and DHHA1 domains; Tag-free after TEV cleavage of the His-MBP-TEV fusion (vector pET28-HMT); also called DrRecJ-like^wt; DrNrnA; source: E. coli Rossetta (DE3), purified (His-tag column, HiTrap Q, TEV tag removal, Superdex 75); not shown: His6, N-terminal, cleaved; MBP, …
# Target: the molecule itself
# Experiment: SEC; analytical gel filtration, Superdex 75 10/300 GL, 20 mM Tris pH 8.0, 100 mM NaCl, 1 mM TCEP; 300 ul of 1 mM protein loaded; calibrated with protein standards (6.5-75 kDa)
protein,measurement,value
B1,stoichiometry N,2
